# Laboratory results from PMC8794802.
# B1: CDC8 (cdc8-FL, 61 nt) (ssRNA)
# RNA: GUCAAUCACGAUUGUAGACGUUACUAAUAAGGGCAUUCAGGAAGUUGAAGCGCUUAUUUGG
# Molecular target: T1, Pus7 D256A (Saccharomyces cerevisiae, UniProt Q08647 1-676, D256A)
# T1 sequence: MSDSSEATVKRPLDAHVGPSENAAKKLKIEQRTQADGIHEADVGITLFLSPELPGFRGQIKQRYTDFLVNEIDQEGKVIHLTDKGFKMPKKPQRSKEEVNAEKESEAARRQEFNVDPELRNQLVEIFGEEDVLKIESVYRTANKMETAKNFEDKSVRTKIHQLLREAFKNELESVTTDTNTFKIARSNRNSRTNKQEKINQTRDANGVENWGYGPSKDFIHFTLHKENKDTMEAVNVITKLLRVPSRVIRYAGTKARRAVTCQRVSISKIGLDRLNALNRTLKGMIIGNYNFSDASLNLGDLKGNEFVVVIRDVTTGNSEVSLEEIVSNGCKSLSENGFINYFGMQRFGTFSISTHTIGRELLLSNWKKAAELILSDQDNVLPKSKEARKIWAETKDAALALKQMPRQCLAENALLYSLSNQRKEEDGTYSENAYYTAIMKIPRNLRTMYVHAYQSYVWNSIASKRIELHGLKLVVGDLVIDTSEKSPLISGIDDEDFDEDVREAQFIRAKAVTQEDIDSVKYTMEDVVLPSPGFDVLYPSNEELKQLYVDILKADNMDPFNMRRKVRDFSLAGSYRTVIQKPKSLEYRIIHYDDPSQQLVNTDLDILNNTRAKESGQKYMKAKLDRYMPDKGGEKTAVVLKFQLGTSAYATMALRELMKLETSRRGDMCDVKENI
# Test: stopped-flow fluorescence
binder,measurement,value
B1,Kd,~85 nM
